Results: patent US20020127652A1 (published 2002)

Target: T1, human FSH receptor (human, UniProt P23945 18-695)
T1 sequence (looked up): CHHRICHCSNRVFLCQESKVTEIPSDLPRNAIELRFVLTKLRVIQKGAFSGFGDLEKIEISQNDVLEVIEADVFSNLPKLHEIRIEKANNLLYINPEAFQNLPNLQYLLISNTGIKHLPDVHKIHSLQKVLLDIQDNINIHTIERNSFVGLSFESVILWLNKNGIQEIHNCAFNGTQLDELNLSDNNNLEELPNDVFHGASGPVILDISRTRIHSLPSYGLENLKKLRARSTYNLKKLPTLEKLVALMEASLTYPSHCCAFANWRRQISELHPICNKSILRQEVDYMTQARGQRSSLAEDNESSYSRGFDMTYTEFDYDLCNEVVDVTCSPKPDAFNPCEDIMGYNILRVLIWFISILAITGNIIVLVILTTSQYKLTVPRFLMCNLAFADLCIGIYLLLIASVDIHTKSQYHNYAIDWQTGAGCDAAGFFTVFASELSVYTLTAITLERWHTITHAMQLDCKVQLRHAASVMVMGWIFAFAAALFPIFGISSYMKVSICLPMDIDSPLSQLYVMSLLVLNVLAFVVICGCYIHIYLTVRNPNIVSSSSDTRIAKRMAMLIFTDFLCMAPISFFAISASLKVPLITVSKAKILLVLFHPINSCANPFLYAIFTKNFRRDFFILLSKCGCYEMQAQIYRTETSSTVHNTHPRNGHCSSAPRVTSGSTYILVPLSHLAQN
Experiment: cell-based or functional assay

B1: wildtype human FSH (follicle stimulating hormone), recombinant, produced in CHO K1 cells (ligand)
chain 1: not shown
chain 2: CELTNITIAIEKEECRFCISINTTWCAGYCYTRDLVYKDPARPKIQKTCTFKELVYETVRVPGCAHHADSLYTYPVATQCHCGKCDSDSTDCTVRGLGPSYCSFGEMKE
For B1, the “luciferase signal of the CHO FSH-R/CRE-luc reporter clone, EC50” value was roughly 0.01 IU/ml.

B2: FSH1208, variant form of FSH containing two N-linked glycosylations at the N-terminus of the alpha subunit (ligand)
chain 1: not shown
chain 2: B1 chain 2
modifications: both asparagine residues of the N-terminal extension … are glycosylated
With B2 the “specific activity (in vitro bioactivity in the FSH luciferase assay per FSH content by ELISA), relative to wildtype FSH” value was ~0.33 fold of the wildtype reference.
